From PMC11883000, “Structure-function relationship of ASH1L and histone H3K36 and H3K4 methylation” (Nature Communications, 2025)
Numbering of substitutions follows the chain as printed. In names and notes the source's numbering stands. Entries after “also recorded” stand apart in the source; their conditions may differ.

How the values were obtained:
Assay type in all cases: binding
[1] = system: 147 bp 601 DNA; experiment: EMSA with 147 bp 601 DNA; conditions: 0.05 µM 147 bp 601 DNA, increasing protein, 25 mM Tris pH 7.5, 20 mM NaCl, 20% glycerol, on ice 5 min, at least in duplicate
[2] = system: H3K4me3-NCP; conditions: EMSA
[3] = system: unmodified 147 bp NCP; experiment: EMSA with unmodified 147 bp NCP; conditions: 0.025 µM nucleosome, pH 7.5, compared to H3K4me3-NCP
[4] = system: unmodified 187 bp NCP; experiment: EMSA with unmodified 187 bp NCP

B1: ASH1LBD-PHD: Human ASH1L construct (aa 2430-2629) (protein)
chain: NIEVARAARLAQIFKEICDGIISYKDSSRQALAAPLLNLPPKKKNADYYEKISDPLDLITIEKQILTGYYKTVEAFDADMLKVFRNAEKYYGRKSPVGRDVCRLRKAYYNARHEASAQIDEIVGETASEADSSETSVSEKENGHEKDDDVIRCICGLYKDEGLMIQCDKCMVWQHCDCMGVNSDVEHYLCEQCDPRPVDREVP
In the case of B1, the DNA binding [1] is reported as “decreased”.

B2: ASH1LPHD-BAH: Human ASH1L construct (aa 2579-2794 and 2579-2834) (protein, UniProt Q9NR48 2579-2834, looked up, fragment)
chain: HEKDDDVIRCICGLYKDEGLMIQCDKCMVWQHCDCMGVNSDVEHYLCEQCDPRPVDREVPMIPRPHYAQPGCVYFICLLRDDLLLRQGDCVYLMRDSRRTPDGHPVRQSYRLLSHINRDKLDIFRIEKLWKNEKEERFAFGHHYFRPHETHHSPSRRFYHNELFRVPLYEIIPLEAVVGTCCVLDLYTYCKGRPKGVKEQDVYICDYRLDKSAHLFYKIHRNRYPVCTKPYAFDHFPKKLTPKKDFSPHYVPDNYK
modifications: also 2579-2794 construct
For B2, the DNA binding [1] was “forms a tight complex with 601 DNA”, the “binding to H3K4me3-NCP” value ([2]; 0.025 µM nucleosome, increasing protein, pH 7.5, on ice 5 min) was “formed a tight complex” and the “binding to unmodified 147 bp NCP” value [3] was “decreased”. For the same molecule, the “binding to unmodified 187 bp NCP” value ([4]; 0.025 µM nucleosome, pH 7.5, compared to unmodified 147 bp NCP) was “increased”.

B3: ASH1LBD: Human ASH1L bromodomain (aa 2430-2564) (protein)
chain: LAAAEENIEVARAARLAQIFKEICDGIISYKDSSRQALAAPLLNLPPKKKNADYYEKISDPLDLITIEKQILTGYYKTVEAFDADMLKVFRNAEKYYGRKSPVGRDVCRLRKAYYNARHEASAQIDEIVGETASE
modifications: left off: GST, end not stated, cleaved
In the case of B3, the DNA binding [1] is reported as “forms a complex with DNA”.

B4: K2477Q/K2478Q/K2479Q mutant: K2477Q/K2478Q/K2479Q mutant of ASH1LBD (protein, UniProt Q9NR48 2430-2564, looked up, variant K2477Q K2478Q K2479Q)
chain: B3 chain with K48Q, K49Q, K50Q
modifications: bromodomain
notes: K2477Q/K2478Q/K2479Q mutant of ASH1LBD
In the case of B4, the DNA binding [1] is reported as “diminished”.

B5: K2524Q/R2528Q/K2529Q mutant: K2524Q/R2528Q/K2529Q mutant of ASH1LBD (protein, UniProt Q9NR48 2430-2564, looked up, variant K2524Q R2528Q K2529Q)
chain: B3 chain with K95Q, R99Q, K100Q
modifications: bromodomain
notes: K2524Q/R2528Q/K2529Q mutant of ASH1LBD
B5 was tested, and the DNA binding [1] was “lost its ability to bind DNA”.

B6: ASH1LBD-PHD-BAH: Human ASH1L construct (aa 2436-2833) (protein, UniProt Q9NR48 2436-2833, looked up, fragment)
chain: NIEVARAARLAQIFKEICDGIISYKDSSRQALAAPLLNLPPKKKNADYYEKISDPLDLITIEKQILTGYYKTVEAFDADMLKVFRNAEKYYGRKSPVGRDVCRLRKAYYNARHEASAQIDEIVGETASEADSSETSVSEKENGHEKDDDVIRCICGLYKDEGLMIQCDKCMVWQHCDCMGVNSDVEHYLCEQCDPRPVDREVPMIPRPHYAQPGCVYFICLLRDDLLLRQGDCVYLMRDSRRTPDGHPVRQSYRLLSHINRDKLDIFRIEKLWKNEKEERFAFGHHYFRPHETHHSPSRRFYHNELFRVPLYEIIPLEAVVGTCCVLDLYTYCKGRPKGVKEQDVYICDYRLDKSAHLFYKIHRNRYPVCTKPYAFDHFPKKLTPKKDFSPHYVPDNY
For B6, the DNA binding [1] was “restored; also recorded: further increased”, the “preference over 147bp-NCP” value ([2]; H3K4me3-NCP over 147bp-NCP) was “maintained” and the “preference over 147bp-NCP” value ([4]; 187bp-NCP over 147bp-NCP) was “maintained; also recorded: this preference was retained”.
